Assay results reported in patent US20090226442A1 (Biogen, published 2009).
Positions count from the first letter of the chain named. Blank lines part the entries; values can stand above or below the binder they belong to.

Key:
[1] = target: T1, human RON (recepteur d'origine nantais, MST1R), full length, expressed on cells (human, UniProt Q04912 25-1400); assay: flow cytometry on SW480 tumor cells, 4P fit (apparent affinity)
T1 construct: On SW480 tumor cells it is endogenous; also called hRON; SW480-RON cells
Method: The binding of RON antibodies to RON expressing tumor cells was analyzed by flow cytometry, and an apparent affinity was calculated. Confluent SW480 cells were detached with 5 mM EDTA, washed 1× with FACS buffer (1% FCS, 0.05% sodium azide, 1×PBS) and resuspended at 0.5-1.0×10⁷/ml. The cells were added to a 96-well V bottom polypropylene plate at 100 μl/well. Antibody dilutions were made up in FACS buffer at 2× final concentration and added to the plate at 100 μl/well. The plate was incubated for 1 hour at 4° C., followed by washing 3× with FACS buffer. The cell pellets were then resuspended in 150 μl of PE labeled goat anti-murine IgG H & L secondary antibody, diluted 1/200, and incubated for 1 hour at 4° C. The cells were then washed 1× with FACS buffer and fixed with 150 μl 3% formaldehyde at room temperature for 10 minutes. The cell pellets were resuspended in 150 μl FACS buffer and analyzed by FACS. The EC50 of binding was calculated from the binding curves using a standard 4P fit equation.

[2] = target: T2, PSI domain of RON (G502-P544) thioredoxin fusion protein (human, UniProt Q04912 526-568); assay: ELISA on plate-coated PSI domain thioredoxin fusion
T2 construct: Expressed in E. coli; also called PSI domain alone; not shown: thioredoxin (printed 'thiroedexin') fusion partner; purified on
T2 chain: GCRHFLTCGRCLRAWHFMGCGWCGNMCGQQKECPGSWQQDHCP
Method: The ability of the antibodies to bind to soluble RON was measured using a standard ELISA protocol. Briefly, soluble RON protein (R&D Systems, catalog 1947) was coated on Nunc Maxisorb ELISA plates at a concentration of […] in PBS overnight at 4° C. Plates were washed 4 times with an automatic washer in PBS, 0.05% Tween 20. Plates were then blocked in PBS+1% BSA for 1-2 hours at room temperature (RT). After washing, serial dilutions of the antibodies in blocking buffer were added to the plate (100 ul/well) and incubated for 1-2 hours at RT. The plate was washed again 4× with automatic washer (PBS, 0.05% tween 20). Next, the plate was incubated with HRP-labelled donkey anti-mouse polyclonal antibody (Jackson Labs 715-035-130) at a dilution of 1:4000 in blocking buffer (100 ul/well) for 0.5-1 hour RT. The plate was washed again 4× with automatic washer (PBS, 0.05% Tween 20). After the final wash step, the plate was developed with TMB solution (25 ml 100 mM sodium acetate, pH to 6 with citric acid, 4 ul 30% H202, 250 ul 42 mM TMB in DMSO) for 5 minutes. The reaction was stopped with 100 ul H₂SO₄. Plates were read at 450 nm wavelength on Molecular Devices Spectramax M5 and Softmax pro V5 software was used to analyze the data.
The PSI domain of RON (G502-P544) was expressed in E. coli as a thiroedexin-fusion protein. The protein was purified on NiNTA agarose (qiagen) followed by preparative size exclusion chromatography (SEC). This protein was used to coat ELISA plates and analyze antibodies for binding using the same protocol described above for binding of antibodies to soluble RON in Example 10.

B1: 1P2E7 murine monoclonal anti-RON antibody (antibody, V domains shown)
VH: DVQLQESGPGLVKPSQSLSLTCTVTGDSITSDYAWNWIRQFPGNKLEWMGYISYSGSTSYNPSLKSRFSITRDTSKNQFFLQLNSVTTEDSATYYCARGGFYYRYAGPGFAYWGQGTLVTVSA
VL: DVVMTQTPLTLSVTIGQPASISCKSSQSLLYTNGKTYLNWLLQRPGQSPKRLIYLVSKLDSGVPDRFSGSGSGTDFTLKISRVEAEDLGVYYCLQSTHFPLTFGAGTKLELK
notes: Whole murine hybridoma antibody; kappa light chain; also called 1P2E7.3; 1.P2E7.3
- EC50 [1]: 90 pM
- binding result [2]: no binding

B4: 1P4A12 murine monoclonal anti-RON antibody (antibody, V domains shown)
VH: EVQLQQSGPELVKPGASMKISCKASGYSFTGYTMNWVKQSHGKKLEWIGLINPYNGGTIYNQKFKGKATLTVDKSSSTAYMELLSLTSEDSAVYYCARWLRRGGYAMDYWGQGASVTVSS
VL: DILLTQSPAILSVSPGERVSFSCRASQSIGTSIHWYQQRTNGSPRLLIKFASESISGIPSRFSGSGSGTDFTLSINSVESEDIADYYCQQSDSWPLTFGAGTKLEVK
notes: Whole murine hybridoma antibody; kappa light chain; also called 1P4A12.2; 1.P4A12.2
- EC50 [1]: 70 pM
- binding result [2]: no binding

B5: 1P5B10 murine monoclonal anti-RON antibody (antibody, V domains shown)
VH: B4 VH with K23R, S25A, Y27F, K44S, P53L, Y54N, I59S, Y60H, A114I
VL: B4 VL with S28N, F50Y, V106L
notes: Whole murine hybridoma antibody; kappa light chain; also called 1P5B10.3; 1.P5B10.3.10
- EC50 [1]: 340 pM
- binding result [2]: no binding

Next, values leading:

- EC50 [1]: 40 pM
- binding result [2]: no binding
B2: 1P3B2 murine monoclonal anti-RON antibody (antibody, V domains shown)
VH: EVQLQQSGPELEKPGASVKISCKASGYSFTGYNMNWVKQSNGESLEWIGDIDPYYGGTRYNQKFKGKATLTVDKSSSTAYMQLKSLTSEDSAVYYCAREGRGFAYWGQGTLVTVSA
VL: DIQMTQSPASLSASVGETVTITCRASENIYSYLAWYQKKQGKSPQLLVYNAKTSVEGVPSRFSGSGSGIQFSLKINSLQPEDFGSYYCHCQHHYGTLPTFGGGTKLEIK
notes: Whole murine hybridoma antibody; kappa light chain; also called 1P3B2.2; PTA-8813

- EC50 [1]: 70 pM
- binding result [2]: no binding
B3: 1P4A3 murine monoclonal anti-RON antibody (antibody, V domains shown)
VH: B2 VH with K19M, N41T, E43K, G56D, V72A, A97T
VL: DIQMTQSPASLSASVGETVTITCRASENIYSYLAWYQQKQGKSPQLLVYNAKTLAGGVPSRFSGSGSGTQFSLKINSLQPEDFGSYYCQHYYGTPLTFGAGTKLELK
notes: Whole murine hybridoma antibody; kappa light chain; also called 1P4A3.3; 1.P4A3.3
